Ends that are not written are not given here.
Target: glucagon receptor (UniProt P47871 26-477, limits assumed)
Test: cell-based or functional assay

glucagon receptor, sequence (P47871 26-477 limits assumed): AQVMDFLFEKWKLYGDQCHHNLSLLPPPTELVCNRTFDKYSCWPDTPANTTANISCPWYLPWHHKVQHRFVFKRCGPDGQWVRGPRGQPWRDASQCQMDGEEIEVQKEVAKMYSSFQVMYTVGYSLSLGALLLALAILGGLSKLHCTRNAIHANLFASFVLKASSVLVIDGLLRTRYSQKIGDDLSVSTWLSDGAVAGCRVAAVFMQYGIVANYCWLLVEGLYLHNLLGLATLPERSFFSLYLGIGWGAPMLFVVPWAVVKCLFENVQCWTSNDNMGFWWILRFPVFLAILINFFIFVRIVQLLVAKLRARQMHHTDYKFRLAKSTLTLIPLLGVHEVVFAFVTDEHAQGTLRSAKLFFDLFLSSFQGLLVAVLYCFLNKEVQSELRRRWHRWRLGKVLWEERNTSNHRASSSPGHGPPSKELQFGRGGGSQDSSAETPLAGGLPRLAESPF

glucagon agonism: > 10 fold reduction
Binder: HSEGTFTSDYSKYLDEQAAKEFIC(PEG 20 kDa)WLMNT (not fully specified (C-terminus)) [Peptide V]

Source: US20110257092A1 (INDIANA UNIVERSITY RESEARCH AND TECHNOLOGY, published 2011)
